Laboratory results reported in patent US20150232562A1 (Ablynx, published 2015).

B1: 13A4 (VHH)
VHH: EVQLVESGGGLVQAGGSLRLSCVASKMTFMRYTMGWYRQAPGKQRDLVASIDSSGGTNYADSVKGRFTISRDNAKNTVYLEMNSLKPEDTGVYYCNGRWDIVGAIWWGQGTQVTVSS
notes: C-term myc-His6 tag
B2: 27H4 (VHH)
VHH: EVQLVESGGGLVQAGGSLRLSCVASKMTFMRYTMGWYRQAPGKQRDLVASIDASGGTNYADSVKGRFTISRDNAKNTVYLEMNSLKPEDTGVYYCNGRWDIVGAIWWGQGTQVTVSS
notes: C-term myc-His6 tag
B3: 14A1 (VHH)
VHH: EVQLVESGGGSVQAGGSLRLSCAASERTFSSYGMGWFRQAPGKEREFVATINWSGVTAYADSVKGRFTISRDNAKKTVYLQMNSLKPEDTAVYYCAAEPYGSGSSLMSEYDYWGHGTQVTVSS
notes: C-term myc-His6 tag
B4: 14A2 (VHH)
VHH: EVQLVESGGGLVQAGGSLRLSCAASERTFSSYGMGWFRQAPGKEREFVATINWSGVTAYADSVKGRFTISRDNAKKTVYLQMNSLKPEDTAVYYCAAEPYGSGSSLISEYDYWGHGTQVTVSS
notes: C-term myc-His6 tag
B5: 14A4 (VHH)
VHH: EVQLVESGGGSVQAGSSLTLSCVASEGTFSSYGMGWFRQAPGKERAFVATINWSGVNAYADSVKGRFTISRDNAKKTAYLQMNSLKPEDTAVYYCAAETYGSGSSLMNEYDYWGQGTQVTVSS
notes: C-term myc-His6 tag
B6: 14A12 (VHH)
VHH: EVQLVKSGGGLVQAGGSLRLSCAASERTFSSYGMGWFRQAPGKEREFVATINWSGVTAYADSVKGRFTISRDNAKKTVYLQMNSLKPEDTAVYYCAAEPYGSGSSLISEYDYWGHGTQVTVSS
notes: C-term myc-His6 tag
B7: 14B3 (VHH)
VHH: EVQLVESGGGLVQPGGSLTLSCVASEGTFSSYGMGWFRQAPGKERAFVATINWSGVNAYADSVKGRFTISRDNAKKTAYLQMNSLKPEDTAVYYCAAETYGSGSSLMNEYDYWGQGTQVTVSS
notes: C-term myc-His6 tag
B8: 14B4 (VHH)
VHH: EVQLVESGGGLVQAGGSLRLSCAVSSRAFSSYGMGWFRQAPGKDREFVATINWSGVTAYADSIKGRFTISRDNAKETVYLQMNSLKPEDTGVYYCAAETYGSGSSLMSEYDYWGQGTQVTVSS
notes: C-term myc-His6 tag
B9: 14B10 (VHH)
VHH: EVQLVESGGGLVQAGGSLRLSCAVNSRTFSSYGMGWFRQAPGKEREFVATINWSGVTAYADSIKGRFTISRDNAKETVYLQMNSLKPDDTGVYYCAAETYGSGSSLMSEYDYWGQGTQVTVSS
notes: C-term myc-His6 tag
B10: 14B11 (VHH)
VHH: EVQLVESGGGLVQAGGSLRLSCAASGSTFSSYGMGWFRQVPGKEREFVATINWSGVTAYADSVKGRFTISRDNAKKTVYLQMNSLKPEDTARYYCGVETYGSGSSLMTEYDYWGQGTQVTVSS
notes: C-term myc-His6 tag
B11: 14C1 (VHH)
VHH: EVQLVESGGGSVQAGGSLRLSCAASGSTFSSYGMGWFRQAPGKERAFVATINWSGVTAYADSVKGRFTISRDNAKKTVYLQMNSLKPEDTAVYYCATETYGSGSSLMNEYDYWGQGTQVTVSS
notes: C-term myc-His6 tag
B12: 14C6 (VHH)
VHH: EVQLVESGGGSVQAGGSLRLSCVASEGTFSSYGMGWFRQAPGKERAFVATINWSGVTAYADSVKGRFTISRDNAKKTVYLQMNSLKPEDTAVYYCATDTYGSGSSLMNEYDYWGQGTQVTVSS
notes: C-term myc-His6 tag
B13: 14C11 (VHH)
VHH: EVQLVESGGGLVQAGGSLRLSCAVNSRTFSSYGMGWFRQAPGKEREFVATINWSGATAYADSIKGRFTISRDNAKETVYLQMNSLKPDDTGVYYCAAETYGSGSSLMSEYDYWGQGTQVTVSS
notes: C-term myc-His6 tag
B14: 17C3 (VHH)
VHH: EVQLVESGGGLVQAGGSLRLSCAANGLTFRRYDMGWYRQAPGQQREWVAAISGAGDINYADSVKGRFTMARDNANHTVHLQMNSLKPEDTAVYYCNANWKMLLGVENDYWGQGTQVTVSS
notes: C-term myc-His6 tag
B15: 46D3 (VHH)
VHH: KVQLVESGGGLVQAGGSLRLSCAASGRTFTEYSMGWFRQAPGKEREFVATISWNYGYTYYSDSVKGRFTVSRDIAENTVYLQMNTLKSEDTAVYYCAAKIGWLSIRGDEYEYWGQGTQVTVSS
notes: C-term myc-His6 tag
B16: 17C2 (VHH)
VHH: EVQLVESGGGLVQPGGSLRLSCAASGFAFSSYAMSWVRQAPGKGLEWVSAVDSGGGRTDYAHSVKGRFTISRDNAKNTLYLQMSSLKPEDTALYYCTKHVSDSDYTEYDYWGQGTQVTVSS
notes: C-term myc-His6 tag
B17: 15A6 (VHH)
VHH: EVQLVESGGGLVQAGGSLRLSCVTSRRPASTRTMAWYRQAPGKQRDWVATISSHGLPVYADSVKGRFTVSRDNANNTVYLQMNTLKPEDTAVYYCRDVNADYWGQGTQVTVSS
notes: C-term myc-His6 tag
B18: 15C2 (VHH)
VHH: EVQLVESGGGLVQAGGSLRLSCVTSRRPASTRTMAWYRQAQGKQRDWVATISSHGLPVYADSVKGRFTVSRDNANNTVYLQMNTLKPEDTAVYYCRDVNADYWGQGTQVTVSS
notes: C-term myc-His6 tag
B19: 17C5 (VHH)
VHH: EVQLVESGGGLVQAGGSLRLSCVTSRRPASTRTMAWYRQAPGKQRDWVATISSHGLPVYADSVKGRFTVSRDNANNTVYLQMNTLKPEDTAVYYCRDVNADYWGQGTPVTVSS
notes: C-term myc-His6 tag
B20: 17B6 (VHH)
VHH: EVQLVESGGGLVQPGGSLRLSCAASRIPFSTRTMAWYRQAPGKQRDWVATIGTSGPPRYADSVKGRFTVSRDNAKNTVYLQMNSLKAEDTAVYYCWDVNADYWGQGTQVTVSS
notes: C-term myc-His6 tag
B21: 27A5 (VHH)
VHH: EVQLVESGGGLVQAGGSLNLSCVASGIPFSTRTMAWYRQPPGNERDWVATIRSGAPVYADSVKGRFTVSRDNAKNTLYLQMNSLEPEDTATYYCWDVNGDIWGQGTPVTVSS
notes: C-term myc-His6 tag
B22: 27G5 (VHH)
VHH: EVQLVESGGGLVQPGGSLRLSCVASRIPASIRTMAWYRQTPGNQRDWLATIGSSGTPAYADSVKGRFTVSRDNAKNTVYLQMNSLKPEDTAVYYCRDVNGDYWGQGTQVTVSS
notes: C-term myc-His6 tag
B23: 13A9 (VHH)
VHH: EVQLVESGGGLVQAGGSLRLSCVASRIPASIRTMAWYRQAPGKQRDWVATIGTGGTPAYADSFKGRFTVSRDNANHTVYLQMNSLKPEDTAVYYCRDVNGDYWGQGTQVTVSS
notes: C-term myc-His6 tag
B24: 15D8 (VHH)
VHH: EVQLVESGGGLVQPGGSLKLSCVASTIPASIRTMAWYRQTPGNQRDWLATIGSSGTPAYADSVKGRFTVSRDNAKNTVYLQMNSLKPEDTAVYYCRDVNGDYWGQGTQVTVSS
notes: C-term myc-His6 tag
B25: 29E9 (VHH)
VHH: EVQLVESGGGLVQPGGSLRLSCVASRIPASIRTMAWYRQTPGNQRDWLATIGSSGTPAYADSVKGRFTVSRDNAKNTVYLQMNSLKPEDTAVYYCRDVNGDYWGQGTQVTVSS
notes: C-term myc-His6 tag
B26: 15G4 (VHH)
VHH: EVQLVESGGGLVQAGGSLRLSCVASGIPFRSRTMAWYRQAPGKTRDWVATIGTHGTPLYADSVKGRFTVSRDNAKNTLYLQMNSLKPEDTAVYYCWDVNGDYWGQGTQVTVSS
notes: C-term myc-His6 tag
B27: 15D12 (VHH)
VHH: EVQLVESGGGLVQAGESLRLSCATSGITFKRYVMGWYRQGPGKQRELVATVNDGGTTSYADSVKGRFAISRDNAKNTAYLQMNSLKAEDTAVYYCNAVWKLPRFVDNDYWGQGTQVTVSS
notes: C-term myc-His6 tag
B28: 13D7 (VHH)
VHH: EVQLVESGGGLVQAGGSLRLSCAANGLTFRRYDMGWYRQAPGQQREWVAAISGAGDINYADSVKGRFTMARDNANHTVHLQMNSLKPEDTAVYYCNANWKMLLGVENDYWGQGTQVTVSS
notes: C-term myc-His6 tag
B29: 13A8 (VHH)
VHH: EVQLVESGGGLVQPGGSLRLSCAASGLGIAFSRRTMAWYRQAPGKQRDWVATIAGDGSTVYADSMKGRFTISRDNAENTVYLQMNSLKPEDTAVYYCWDVNRDYWGQGTQVTVSS
notes: C-term myc-His6 tag
B30: 15A4 (VHH)
VHH: EVQLVESGGGLVQPGGSLRLSCAASGLGIAFSRRTMAWYRQAPGKQRDWVATIAGDGSTVYADSMKGRFTISRDNAKNTVYLQINSLKPEDTAVYYCWDVNRDYWGQGTQVTVSS
notes: C-term myc-His6 tag
B31: 17F5 (VHH)
VHH: EVQLVESGGGLVQPGGSLRLSCAASGLGIAFSRRTMAWYRQAPGKQRDWVATIAGDGSTVYADSMKGRFTISRDNAKNTVYLQVNSLKPEDTAVYYCWDTNGDYWGQGTQVTVSS
notes: C-term myc-His6 tag
B32: 17G5 (VHH)
VHH: EVQLVESGGGLVQPGGSLRLSCAASGIGIAFSSRTMAWYRQAPGKQRDWVATIGSGGTTNYADSVKGRFTISRDNAKNTVYLQMNSLKPEDTAVYYCRDINRDYWGQGTQVTVSS
notes: C-term myc-His6 tag
B33: 27D3 (VHH)
VHH: EVQLMESGGGLVQPGGSLRLSCAASGLGIAFSRRTMAWYRQAPGKQRDWVATIAGDGSTVYADSMKGRFTISRDNAENTVYLQMNSLKPEDTAVYYCWDVNRDYWGQGTQVTVSS
notes: C-term myc-His6 tag
B34: 17F7 (VHH)
VHH: EVQLVESGGGLVQAGGSLRLSCVASGIAQSIRVMAWYRQPPGKQRDWVGTISSDGTANYADSVKGRFTISRDNAKKTMYLQMNSLKPDDTAVYYCRDVNRDYWGQGTQVTVSS
notes: C-term myc-His6 tag

target: T1, recombinant human ErbB2/Fc chimera (human, UniProt P04626 23-652); assay: ELISA, coated ErbB2/Fc
T1 construct: bought from R&D Systems; also called rhErbB2-Fc; rhErb2-Fc; Fc part of the bought chimera not given; not described

Binding result, binds:
B1
B2
B3
B4
B5
B6
B7
B8
B9
B10
B11
B12
B13
B14
B15
B16
B17
B18
B19
B20
B21
B22
B23
B24
B25
B26
B27
B28
B29
B30
B31
B32
B33
B34
